Six substances from patent US20230398228A1, “ERIBULIN-BASED ANTIBODY-DRUG CONJUGATES AND METHODS OF USE” (EISAI R&D MANAGEMENT CO., LTD., priority 2016, published 2023) can be followed below.

In data set [1] the target is Recombinant human folate receptor alpha (Homo sapiens, UniProt P15328). The experiment in a line: ELISA, folate receptor alpha. The data set is classed as binding. To be noted: MORAb-003 and its ADCs. The procedure:
(§1) Coating solution was discarded and the plates were washed three times using 1×PBS with 0.05% Tween-20 (PBST) buffer. Plates were blocked in 300 μL blocking buffer (1% BSA in PBST) at room temperature for 2 hours on an orbital shaker. […] Blocking buffer was discarded and 100 μL/well of diluted antibody was added to the plates. Plates were incubated at room temperature for 2 hours on an orbital shaker. Antibody solution was discarded and plates were washed three times using PBST. 100 μL/well of goat-anti-human IgG (H+L)-HRP (1:10,000 dilution in blocking buffer) solution was added to the plates, and plates were incubated at room temperature for 1 hour on an orbital shaker. Secondary antibody solution was discarded and plates were washed three times using PBST. 100 μL/well of QuantaBlu fluorogenic peroxidase substrate working solution (Thermo, Cat No. 15169) was added to the plates, and plates were incubated at room temperature for 30 min. Fluorescence was read at excitation 325 nm/emission 420 nm using a SpectraMax M5 (Molecular Devices). Data was analyzed using SoftMaxPro 5.4.2 software with 4-parameter fitting.
In general terms: In an ELISA, binding on a coated surface is turned into a signal by an enzyme label.

Data set [2] concerns IGROV1 cells. The experiment in a line: Crystal Violet cytotoxicity assay (Example 4), IGROV1. The format is cell-based, human. Conditions: mean of replicate experiments, read-out: Cytotoxicity IC50 (nM), IGROV1 (FR^hi, MSLN^neg). The procedure:
(§2) Test reagents were serial diluted 1:3 in 2 mL deep-well dilution plates, starting at 200 nM (10 dilutions total). […] Medium was then discarded. […] Plates were read at 570 nm. Data was analyzed using GraphPad Prism 6.

In data set [3] the test system is NCI-H2110 cells. The experiment in a line: Crystal Violet cytotoxicity assay (Example 4), NCI-H2110. The format is cell-based, human. Conditions: mean of replicate experiments, read-out: Cytotoxicity IC50 (nM), NCI-H2110 (FR^med, MSLN^med). Here is the method: as §2
For data set [4], the system named is A431 cells. The experiment in a line: Crystal Violet cytotoxicity assay (Example 4), A431 (parental). The format is cell-based, human. Conditions: mean of replicate experiments, read-out: Cytotoxicity IC50 (nM), A431 (FR^neg, MSLN^neg). Here is the method:
Test reagents were serial diluted 1:3 in 2 mL deep-well dilution plates, starting at 200 nM (10 dilutions total). […] Medium was then discarded. […] Plates were read at 570 nm. Data was analyzed using GraphPad Prism 6. […]
MAL-PEG2-Val-Cit-PAB-eribulin (ER-001159569) was conjugated to eight different anti-human mesothelin antibodies (Table 1). Binding affinities of the parental antibodies were determined by BIAcore analysis, as described above in section 1.6.1. Aggregation levels for all anti-human mesothelin ADCs were determined by SEC-HPLC and the DAR was analyzed using HIC-HPLC. In vitro potency was evaluated using a Crystal Violet cell-based cytotoxicity assay in A3 (A431 stabily transfected with human mesothelin (MSLN), MSLN^hi), OVCAR3 (human ovarian, MSLN^hi), HEC-251 (human endometroid, MSLN^med), H226 (human lung squamous cell mesothelioma, MSLN^lo), and A431 parental (MSLN^neg) cells.

Data set [5] can be described thus: SEC-HPLC aggregation analysis. The data set is classed as physicochemical. Here is the method:
The antibody aggregation was analyzed by size-exclusion, high-performance liquid chromatography (SEC-HPLC) using an Agilent 1100. The mAb was diluted to 1 mg/mL in DPBS. The antibody (20 μL) was injected onto a TSKgel® SuperSW guard column (4.6 mm×3.5 cm, 4 μm pore size, Tosoh Bioscience), followed by a TSKgel® SuperSW3000 column (4.6 mm×30 cm, 4 μm pore size), eluted from the column with 0.1 M sodium phosphate containing 0.15 M NaCl and 0.05% NaN3, at pH 7.4, at a flow rate of 0.3 mL/min for 20 min. All data were analyzed using Agilent ChemStation software. Percent aggregation was calculated as [PAaggregate/PAtotal]*100, where PA=integrated peak area.
ADC was diluted to 1 mg/mL in DPBS. ADC (10 μL) was then injected onto an Advanced SEC 300A guard column (4.6 mm×3.5 cm, 2.7 μm pore size, Agilent), followed by a AdvancedBio 300A column (4.6 mm×30 cm, 2.7 μm pore size). ADC was eluted from the column with 0.1 M sodium phosphate containing 0.15 M NaCl and 5% IPA, pH 7.4 at a flow rate of 0.25 mL/min for 28 min. All data were analyzed using Agilent ChemStation software. Percent aggregation was calculated as [PAaggregate/PAtotal]*100, where PA=integrated peak area.
On the technique in general: SEC sorts molecules by how far they enter the pores of the column.

The nature of data set [6]: DAR analysis by LC-MS (UPLC/ESI-MS, reverse-phase LC-MS). Conditions: reverse-phase LC-MS. The procedure: ADCs were deglycosylated using PNGase F (New England BioLabs). G7 buffer (10 μL) and PNGase F (2 μL) were added to the mAb (90 μL, 1 mg/mL in DPBS). The reaction was incubated in a Discover microwave (CEM) for 2 cycles: (1) microwave power 10 W, 37° C., 10 min, followed by a 5-min pause; (2) microwave power 2 W, 37° C., 10 min. A portion of the sample was reduced by adding DTT to a final concentration of 20 mM, followed by incubation at 60° C. for 3 min. Samples were then analyzed using a Waters Acquity Ultra Performance Liquid Chromatography (UPLC) and quadrupole time of flight (Q-Tof) Premier mass spectrometer. Samples (0.5-2 μg each) were injected onto a MassPrep™ micro desalting column at 65° C., eluted from the column with a 5 min equilibration in 95% of mobile phase A, a 10 min gradient (5-90% B), and a 10 min re-equilibration in 95% of mobile phase A, at 0.05 mL/min. Mobile phase A was 0.1% formic acid in water. Mobile phase B was 0.1% formic acid in acetonitrile. The Q-Tof mass spectrometer was run in positive ion, V-mode with detection in the range of 500-4000 m/z. The source parameters were as follows: capillary voltage, 2.25 kV (intact antibody)-2.50 kV (reduced antibody); sampling cone voltage, 65.0 V (intact antibody) or 50.0 V (reduced antibody); source temperature, 100° C.; desolvation temperature, 250° C.; desolvation gas flow, 550 L/hr. The protein peak was deconvoluted using the MassLynx® MaxEnt 1 function. Relative intensities of each unconjugated, singly-conjugated, and multiply-conjugated heavy and light chain masses were combined to calculate the overall DAR using the formula:
2[[ILC+1+2(ILC+2)+3(ILC+3)+ . . . n(ILC+n)]/ΣILCtot]+2[[IHC+1+2(IHC+2)+3(IHC+3)+ . . . n(IHC+n)]/ΣIHCtot]
where ILC+1 is mass intensity of light chain conjugated with one cytotoxin, ILC+2 is mass intensity of light chain conjugated with two cytotoxins, etc. IHC are the intensities from the corresponding conjugated heavy chains, and ΣILCtot and ΣIHCtot are the combined intensities of all unconjugated and conjugated light chains and heavy chains, respectively.
DAR was also analyzed using an LC-MS method with a Waters Alliance HPLC with SQD/PDA detection. Samples were injected onto a Proteomix RP-1000 column ([…], 1000A, 4.6 mm×15 cm, Sepax) at 65° C., and eluted with a 3 min equilibration in 25% B, a 27 min linear gradient from 25%-55% B, a 5 min hold at 55% B, a 1 min change to 90% B, a 5 min hold at 90% B, a 1 min change back to 25% B, and a 5 min reequilibration at 25% B. Mobile phase A was 0.1% TFA in water, and mobile phase B was 0.1% TFA in acetonitrile. The elute was then split (10:1) into PDA and SQD detectors. The SQD detector was set up as ES positive, capillary voltage at 3.2 kV, cone voltage at 40 V, extractor at 3 V, and RF lens at 0.2 V, source temperature at 150° C., and desolvation temperature at 250° C. Mass data was acquired at 200-2000 m/z for 40 min, continuum mode, scan time 1 second. Data was analyzed and deconvoluted offline using MassLynx and MaxEnt1. DAR was calculated using the formula:
2[[AUCLC+1+2(AUCLC+2)+3(AUCLC+3)+ . . . n(AUCLC+n)]/[…]]+2[[AUCHC+1+2(AUCHC+2)+3(AUCHC+3)+ . . . n(AUCHC+n)]/ΣAUCHCtot]
where AUCLC+1 is the area under the curve of the light chain peak conjugated with one cytotoxin, AUCLC+2 is the area under the curve of the light chain peak conjugated with two cytotoxins, etc. AUCHC is the area under the curve of the corresponding heavy chains, and ΣAUCLCtot and ΣAUCHCtot are the combined area under the curve of all unconjugated and conjugated light chains and heavy chains, respectively.

The target in data set [7] is human mesothelin (Homo sapiens, UniProt Q13421). The experiment in a line: ELISA, mesothelin. Conditions: MORAb-009 and its ADCs. The data set is classed as binding. The procedure: as §1, with “Recombinant human mesothelin was diluted to 1 μg/mL in coating buffer (50 mM carbonate-bicarbonate buffer, pH 9.6), and coated onto 96-well Maxisorp black plates (Thermo, Cat No. 43711, 100 μL/well) at 4° C., overnight. Coating” for “Coating”

Chain of Recombinant human folate receptor alpha (P15328 25-234): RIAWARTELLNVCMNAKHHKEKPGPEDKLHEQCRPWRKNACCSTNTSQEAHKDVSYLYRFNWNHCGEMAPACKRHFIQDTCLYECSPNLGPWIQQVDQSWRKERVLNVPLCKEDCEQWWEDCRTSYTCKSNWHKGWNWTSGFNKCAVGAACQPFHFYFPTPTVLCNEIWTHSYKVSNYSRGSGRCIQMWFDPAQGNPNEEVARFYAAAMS

For the substance MORAb003-DBCO-PEG2 eribulin, the “Antigen Binding ELISA, EC50” value in data set [1] was 0.0191 µg/mL. The IC50 in data set [2] was 4.25 nM; in data set [3] it was 38.1 nM; in data set [4] it was greater than 100 nM.

For MORAb003-DBCO-PEG4 VCP eribulin, in data set [1], the “Antigen Binding ELISA, EC50” value amounted to 0.016 µg/mL. Further, the figures for the concentration for half-maximal inhibition (IC50) in data set [2], in data set [3] and in data set [4] were 0.038 nM, 4.28 nM and greater than 100 nM, respectively.

With MORAb003-DBCO-PEG4 eribulin, the “Antigen Binding ELISA, EC50” value in data set [1] came to 0.0133 µg/mL. The IC50 in data set [2] is 1.32 nM; in data set [3] it was 46.3 nM; in data set [4], greater than 100 nM.

With MORAb003-PEG2-eribulin, the “Antigen Binding ELISA, EC50” value in data set [1] is 0.00696 µg/mL. The IC50 was 0.33 nM in data set [2], 38.3 nM in data set [3] and greater than 100 nM in data set [4].

As to MORAb003-PEG4-eribulin, in data set [5], the “SEC-HPLC Analysis % Frag.” value was 0%. Besides, the “SEC-HPLC Analysis % Monomer” value in data set [5] came to 89.76%. In data set [1], the “Antigen Binding ELISA, EC50” value came out at 0.00931 µg/mL. Moreover, the IC50 in data set [2] was 0.277 nM; in data set [3], 21.6 nM; in data set [4], greater than 100 nM.

For MORAb009-DBCO-PEG4 eribulin, in data set [5], the “SEC-HPLC Analysis % Aggr.” value is reported as 1.12%, the “SEC-HPLC Analysis % Frag.” value amounted to 0% and the “SEC-HPLC Analysis % Monomer” value was found to be 98.88%. Also, in data set [6], the “DAR (LC-MS)” value turned out to be 2.8. Besides, the “Antigen Binding ELISA, EC50” value in data set [7] was determined as 0.0452 µg/mL. The EC50 in data set [7] (read-out: Antigen Binding ELISA, EC50) turned out to be 0.3 nM. Besides, the IC50 in data set [2] was 61.5 nM. Further, in data set [3], the IC50 amounted to 39.3 nM. Moreover, the IC50 in data set [4] was greater than 100 nM.

Broadly, the IC50 is the concentration at which inhibition is half-maximal. As a reminder, the EC50 is the midpoint of the concentration-response curve.
